Article PMC5114276
Blank lines part the entries; values can stand above or below the substance they belong to.

Tests used:
[1] = molecular target: connexin36 (Cx36), rat, full length, fluorescently tagged (rat) (UniProt O70610); experiment: FRET or BRET; acceptor bleach FRET on a confocal microscope, Neuro2a cells 48 h after transient co-transfection; read at gap junction plaques (GJP) or at vesicles; non-stimulated or with 2 mM [Ca2+]E and 2 μM ionomycin, 24 μM BAPTA-AM or 10 μM W-7; FRET distance calculated from the efficiency (Ro 5.09), threshold 10 nm
[2] = molecular target: connexin36 (Cx36), rat, full length, fluorescently tagged (rat) (UniProt O70610)
[3] = molecular target: Cx36 mutant R278A, rat, full length, fluorescently tagged (rat) (UniProt O70610); experiment: FRET or BRET; acceptor bleach FRET on a confocal microscope, Neuro2a cells 48 h after transient co-transfection; read at gap junction plaques (GJP) or at vesicles; non-stimulated or with 2 mM [Ca2+]E and 2 μM ionomycin, 24 μM BAPTA-AM or 10 μM W-7; FRET distance calculated from the efficiency (Ro 5.09), threshold 10 nm
[4] = molecular target: Cx36 mutant G276A, rat, full length, fluorescently tagged (rat) (UniProt O70610); experiment: as above

- FRET distance (GJP, non-stimulated) [1]: 10.9 nm
- FRET distance (GJP, stimulated with Ca2+ and ionomycin) [1]: 10.1 nm
- FRET distance (vesicles, non-stimulated) [1]: 9.96 nm
- FRET distance (vesicles, stimulated with Ca2+ and ionomycin) [1]: 10.8 nm
Substance: calcium insensitive mutant CaM_(E1234Q) (from UniProt P0DP29 1-149) (natural protein)

- ethidium bromide fluorescence recovery after photobleaching in pairs of Neuro2a cells expressing Cx36–ECFP (CaM of the cells), non-stimulated [2]: 5.82%
- ethidium bromide fluorescence recovery after photobleaching in pairs of Neuro2a cells expressing Cx36–ECFP (CaM of the cells), stimulated with 2 mM [Ca2+]E and 2 μM ionomycin [2]: 47.5%
- ethidium bromide fluorescence recovery after photobleaching in pairs of Neuro2a cells expressing Cx36–ECFP, CaM blocked with 10 μM W-7, non-stimulated [2]: 16.6%
- ethidium bromide fluorescence recovery after photobleaching in pairs of Neuro2a cells expressing Cx36–ECFP, CaM blocked with 10 μM W-7, stimulated with 2 mM [Ca2+]E and 2 μM ionomycin [2]: 3.77%
- FRET distance (vesicles, non-stimulated) [3]: 9.33 nm
- FRET distance (vesicles, stimulated with Ca2+ and ionomycin) [3]: 8.26 nm
- FRET efficiency (vesicles, non-stimulated) [3]: 2.84%
- FRET efficiency (vesicles, stimulated with Ca2+ and ionomycin) [3]: 6.54%
- FRET distance (vesicles, non-stimulated) [4]: 8.16 nm
- FRET distance (vesicles, stimulated with Ca2+ and ionomycin) [4]: 7.48 nm
- FRET efficiency (vesicles, non-stimulated) [4]: 6.61%
- FRET efficiency (vesicles, stimulated with Ca2+ and ionomycin) [4]: 9.74%
- FRET distance (GJP, non-stimulated) [1]: 9.11 nm
- FRET distance (GJP, stimulated with Ca2+ and ionomycin) [1]: 9.61 nm
- FRET distance (vesicles, non-stimulated) [1]: 9.27 nm
- FRET distance (vesicles, non-stimulated; panel of the alanine mutants) [1]: 9.15 nm
- FRET distance (vesicles, stimulated with Ca2+ and ionomycin) [1]: 8.09 nm
- FRET distance (vesicles, stimulated with Ca2+ and ionomycin; panel of the alanine mutants) [1]: 7.69 nm
- FRET efficiency (GJP, 10 μM W-7) [1]: 2.7%
- FRET efficiency (GJP, 24 μM BAPTA-AM) [1]: 2.8%
- FRET efficiency (GJP, non-stimulated; FRET pair I Cx36–DsRed, CaM–ECFP) [1]: 3.23%
- FRET efficiency (GJP, non-stimulated; FRET pair II Cx36–ECFP, CaM–DsRed) [1]: 3.35%
- FRET efficiency (GJP, stimulated with Ca2+ and ionomycin) [1]: 2.8%
- FRET efficiency (vesicles, non-stimulated; FRET pair I Cx36–DsRed, CaM–ECFP) [1]: 3.65%
- FRET efficiency (vesicles, non-stimulated; FRET pair II Cx36–ECFP, CaM–DsRed) [1]: 3.09%
- FRET efficiency (vesicles, stimulated with Ca2+ and ionomycin) [1]: 6.38%
- FRET efficiency (vesicles, stimulated with Ca2+ and ionomycin; panel of the alanine mutants) [1]: 8.82%
Substance: calmodulin (CaM), rat, full length, fluorescently tagged (from UniProt P0DP29 1-149) (natural protein)
